Measured values reported in US7267993 (AUBURN UNIVERSITY, dated 2007).

What was measured:
[1] = target: T1, β-galactosidase from Escherichia coli (Escherichia coli, UniProt P00722 2-1024 = β-galactosidase); test: direct ELISA: phage immobilized in wells, unlabeled β-galactosidase in solution at varied concentration [bottom panel]
T1 construct: Unlabeled in the ELISA; in solution in all assays; also called b-galactosidase
Source text: (§1) Each binding curve is labeled with the altered amino acid sequence of the foreign peptide carried by the phage being tested (V_o=vector control). ELISA signal (mOD/min) is shown as a function of ligand concentration (micrograms/ml for top two panels; nanomolar for bottom panel).
(§2) *Escherichia coli*). Each protein was absorbed to the surface of a 35-mm polystyrene Petri dish and exposed to the phage library. Unbound phage were washed away, and bound phage was eluted with acid buffer and amplified by infecting fresh bacterial host cells. […] The selected phage were further characterized by enzyme linked immuno sorbent assay (ELISA) in which the phage were immobilized on the plastic surface of ELISA wells and reacted with the ligands in solution phase. Neutravidin and streptavidin were labeled with alkaline phosphatase, while β-galactosidase was unlabeled. […] Inhibition ELISAs verified that non-immobilized peptide-bearing phage compete with immobilized phage for binding to their respective ligands.

neutravidin = target: T2, neutravidin (chicken (stated for avidin), UniProt P02701 25-152); test: direct ELISA: phage immobilized in wells, alkaline phosphatase-labeled neutravidin in solution at varied concentration [top panel]
T2 construct: Labeled with alkaline phosphatase in the ELISA; also called alkaline phosphatase-labeled neutravidin; avidin (from chicken egg white)
Source text: as §1, §2

[2] = target: β-galactosidase from Escherichia coli (Escherichia coli) [β-galactosidase: P00722]; test: direct ELISA: phage immobilized in wells, unlabeled β-galactosidase in solution at varied concentration [bottom panel]
β-galactosidase from Escherichia coli (Escherichia coli) [β-galactosidase: P00722], sequence (P00722 2-1024 limits assumed): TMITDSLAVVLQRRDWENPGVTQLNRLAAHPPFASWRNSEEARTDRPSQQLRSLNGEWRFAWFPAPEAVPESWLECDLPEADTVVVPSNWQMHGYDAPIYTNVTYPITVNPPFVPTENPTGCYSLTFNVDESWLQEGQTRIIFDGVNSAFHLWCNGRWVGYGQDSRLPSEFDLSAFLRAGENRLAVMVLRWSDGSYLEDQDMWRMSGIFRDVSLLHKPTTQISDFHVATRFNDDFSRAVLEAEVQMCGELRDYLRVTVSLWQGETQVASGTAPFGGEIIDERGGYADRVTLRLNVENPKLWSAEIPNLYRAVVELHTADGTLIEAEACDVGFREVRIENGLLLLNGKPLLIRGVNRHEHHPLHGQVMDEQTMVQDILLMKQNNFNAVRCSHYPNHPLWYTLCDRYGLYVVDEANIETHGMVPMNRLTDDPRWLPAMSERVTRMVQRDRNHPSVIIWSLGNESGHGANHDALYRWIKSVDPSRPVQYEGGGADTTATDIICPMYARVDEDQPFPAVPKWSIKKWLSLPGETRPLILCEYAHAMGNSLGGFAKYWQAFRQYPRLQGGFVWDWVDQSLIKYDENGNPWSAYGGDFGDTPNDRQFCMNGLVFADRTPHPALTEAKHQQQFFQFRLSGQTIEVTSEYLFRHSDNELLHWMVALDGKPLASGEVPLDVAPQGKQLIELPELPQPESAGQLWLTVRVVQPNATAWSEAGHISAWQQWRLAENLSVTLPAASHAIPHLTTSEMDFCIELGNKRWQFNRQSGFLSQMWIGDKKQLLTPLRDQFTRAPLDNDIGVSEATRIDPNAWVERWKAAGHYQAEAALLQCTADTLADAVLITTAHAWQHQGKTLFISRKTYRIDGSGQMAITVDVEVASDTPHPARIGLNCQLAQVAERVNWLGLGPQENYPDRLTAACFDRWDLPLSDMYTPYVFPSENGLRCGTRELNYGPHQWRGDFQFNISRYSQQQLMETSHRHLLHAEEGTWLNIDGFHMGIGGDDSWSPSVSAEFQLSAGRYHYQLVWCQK

T1 sequence (P00722 2-1024 limits assumed): as above
T2 sequence (P02701 25-152 limits assumed): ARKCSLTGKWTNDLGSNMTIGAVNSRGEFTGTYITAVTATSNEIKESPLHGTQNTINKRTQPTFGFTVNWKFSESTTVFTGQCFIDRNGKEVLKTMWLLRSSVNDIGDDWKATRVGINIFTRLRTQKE

B1: DTFAKSMQ (other)
major coat protein pVIII carrying the foreign peptide: DTFAKSMQ
notes: landscape phage immobilized in ELISA wells
Question: With B1 as the binder, how does the “EC50 (read off the curve)” value [1] read?
Answer: ~60 nM

B2: EKTLAYNQ (other)
major coat protein pVIII carrying the foreign peptide: EKTLAYNQ
notes: as for B1
Question: For B2, which “EC50 (read off the curve)” value [1] is on record?
Answer: ~40 nM

B3: EKTLAYSQ (other)
major coat protein pVIII carrying the foreign peptide: EKTLAYSQ
notes: as for B1
Question: With B3 as the binder, how does the “EC50 (read off the curve)” value [1] read?
Answer: ~70 nM

B4: VPEYTGPS (other)
major coat protein pVIII carrying the foreign peptide: VPEYTGPS
notes: landscape phage immobilized in ELISA wells; belongs to group m4
Question: Which “EC50 (read off the curve)” value (neutravidin) does the source give for B4 here?
Answer: ~3 micrograms/ml

B5: VTFAAANT (peptide)
major coat protein pVIII carrying the foreign peptide: VTFAAANT
Question: B5 was tested. Which EC50 (read off the curve) [2] did it give?
Answer: 100 nM

B6: VPEYKGAS (other)
major coat protein pVIII carrying the foreign peptide: VPEYKGAS
notes: as for B4
Question: With B6 as the binder, how does the “EC50 (read off the curve)” value (neutravidin) read?
Answer: ~3 micrograms/ml
